Measurements from US20220175921A1.

How the values were obtained:
[1] = molecular target: human GITR, membrane bound (on activated human T cells or on 3A9-hGITR cells) (UniProt Q9Y5U5); assay: FACS binding; activated human CD8 T cells; conditions: ligand
[2] = molecular target: human GITR, membrane bound (on activated human T cells or on 3A9-hGITR cells) (UniProt Q9Y5U5); assay: cell-based or functional assay

human GITR, membrane bound (on activated human T cells or on 3A9-hGITR cells), sequence (Q9Y5U5 26-241): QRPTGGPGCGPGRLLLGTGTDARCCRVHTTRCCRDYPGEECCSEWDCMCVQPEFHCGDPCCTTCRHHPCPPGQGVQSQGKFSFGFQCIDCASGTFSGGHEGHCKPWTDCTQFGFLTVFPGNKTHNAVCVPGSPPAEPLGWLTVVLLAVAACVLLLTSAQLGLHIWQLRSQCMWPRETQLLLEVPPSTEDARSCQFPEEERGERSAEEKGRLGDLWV
recombinant human GITR ligand trimer (R&D Systems 6987-GL), sequence (Q9UNG2 49-177): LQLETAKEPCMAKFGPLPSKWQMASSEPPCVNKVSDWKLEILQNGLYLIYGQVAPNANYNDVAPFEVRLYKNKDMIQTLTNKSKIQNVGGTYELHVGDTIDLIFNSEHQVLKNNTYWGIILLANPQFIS

Row | IC50 [1] [µg/mL] | NFKB signaling (phospho-p65) Emax, CD4+ T cells [2] [%] | NFKB signaling (phospho-p65) Emax, CD8+ T cells [2] [%] | Substance
1 | 0.0163 |  |  | recombinant human GITR ligand trimer (R&D Systems 6987-GL) (from UniProt Q9UNG2 49-177)
2 |  | 4 | 6 | hIgG1 Isotype Control (antibody)
